Measurements as given in PMC11289442 (Nature Communications, 2024).

B1: CFP-OsUVR8b (in transgenic rice) (natural protein)
chain: MDAVMSAADDAGAASGREDPPPAVVLVSAGASHSVALLAGNVLCSWGRGEDGQLGHGDAEDRLVPTVLSGFDAAAPGITSVICGADHTTAYSEDEQQVYSWGWGDFGRLGHGNSSDVFTPQPVKALQGIKIKQIACGDSHCLAVTMAGEVQSWGRNQNGQLGLGTTEDSLLPQKIQSFEGVCVKMIAAGAEHTAAVTEDGDLYGWGWGRYGNLGLGDRNDRLVPEKVSSVEGEKMVLIACGWRHTITVSSSGSLYTYGWSKYGQLGHGDFEDHLVPHKLEALKDSSISQISGGWRHTMALTSDGKLYGWGWNKFGQVGVGDTDDHCFPVQVKFPEDQKVAQVACGWRHTLAFTEKKNVFSWGRGTSGQLGHGEIVDRNKPVMIDALSPDGPGCKKLEPSTAVPFAAKVWVSPSERYAIVPDEKVPNSGEGTARGNGADANVPENDVKRMRVHS
B2: CFP-OsUVR8a (in transgenic rice) (natural protein)
chain: MHSTGMEMEVEVAGDDEAVPEAPERSVVLISAGASHSVALLSGGVVCSWGRGEDGQLGHGDAEDRPVPTVLTAAFDDAPGGVASVVICGADHTTAYSDEELQLYSWGWGDFGRLGHGNSSDVFNPQPIQALQGVRITQIACGDSHCLAVTVAGHVHSWGRNQNGQLGLGNTEDSLLPQKIQAFEGVRVKMIAAGAEHTAAVTEDGDLYGWGWGRYGNLGLGDRDDRLIPEKVSSVNGQKMVLVACGWRHTITVSSSGSIYTYGWSKYGQLGHGDFEDHLVPHKLEALKDTTISQISGGWRHTMALAADGKLYGWGWNKFGQVGVGDNEDHCSPVQVNFPNEQKVVQVACGWRHTLALTEAKNVFSWGRGTSGQLGHGEIVDRNIPKMIDALSSDGSACKQLESSKAVPMSAKVWVSPSERYAIVPDEKAGKGIPAGNGTETHVPQGDVKRMRV

How the values were obtained:
Assay in all cases: SDS-PAGE without heat denaturation and immunoblot
[1] = molecular target: CFP-OsUVR8b (in transgenic Arabidopsis uvr8-6) (rice (Oryza sativa))
[2] = molecular target: CFP-OsUVR8a (in transgenic Arabidopsis uvr8-6) (rice (Oryza sativa))
[3] = molecular target: the molecule itself

| Molecule | stoichiometry N [3] | also measured |
| --- | --- | --- |
| CFP-OsUVR8b (in transgenic Arabidopsis uvr8-6) (natural protein) | – | stoichiometry N [1]: 2 |
| CFP-OsUVR8a (in transgenic Arabidopsis uvr8-6) (natural protein) | – | stoichiometry N [2]: 2 |
| B1 | 2 | – |
| B2 | 2 | – |
